Data: US20210388087A1 (Chugai, published 2021)

B1: GLS3000 H27dA (antibody, name in Kabat numbering, V domains shown)
VH: QVQLVESGGGVVQPGRSLRLSCAASGFTFSNAWMHWVRQAPGKGLEWVAQIKAKSNNYATYYAESVKGRFTISRDDSKNSLYLQMNSLKTEDTAVYYCRYVHYGAYYGVDAWGQGTTVTVSS
VL: DIVMTQSPLSLPVTPGEPASISCRSSQSLVASNRNTYLHWYQQKPGQAPRLLIYKVSNRFSGVPDRFSGSGSGTDFTLKISRVEAEDVGVYYCGQGTQVPYTFGQGTKLEIK
notes: one-arm IgG as m2
B2: GLS3000 F55A (antibody, name in Kabat numbering, V domains shown)
VH: QVQLVESGGGVVQPGRSLRLSCAASGFTFSNAWMHWVRQAPGKGLEWVAQIKAKSNNYATYYAESVKGRFTISRDDSKNSLYLQMNSLKTEDTAVYYCRYVHYGAYYGVDAWGQGTTVTVSS
VL: DIVMTQSPLSLPVTPGEPASISCRSSQSLVHSNRNTYLHWYQQKPGQAPRLLIYKVSNRASGVPDRFSGSGSGTDFTLKISRVEAEDVGVYYCGQGTQVPYTFGQGTKLEIK
notes: one-arm IgG as m2
B3: H183/L072 VH Y59M (antibody, name in Kabat numbering, V domains shown)
VH: QVQLVESGGGLVQPGRSLRLSCAASGFTFSNAWMHWVRQAPGKGLEWVAQIKDKGNAYAAYMAPSVKGRFTISRDDSKNSIYLQMNSLKTEDTAVYYCHYVHYASASTVLPAFGVDAWGQGTTVTVSS
VL: DIVMTQSPLSLPVTPGEPASISCQASQELVHMNRNTYLHWYQQKPGQAPRLLIYKVSNRFPGVPDRFSGSGSGTDFTLKISRVEAEDVGVYYCAQGTSVPFTFGQGTKLEIK
B4: H183/L072 VH Y59N (antibody, name in Kabat numbering, V domains shown)
VH: QVQLVESGGGLVQPGRSLRLSCAASGFTFSNAWMHWVRQAPGKGLEWVAQIKDKGNAYAAYNAPSVKGRFTISRDDSKNSIYLQMNSLKTEDTAVYYCHYVHYASASTVLPAFGVDAWGQGTTVTVSS
VL: DIVMTQSPLSLPVTPGEPASISCQASQELVHMNRNTYLHWYQQKPGQAPRLLIYKVSNRFPGVPDRFSGSGSGTDFTLKISRVEAEDVGVYYCAQGTSVPFTFGQGTKLEIK
B5: H183/L072 VH Y59P (antibody, name in Kabat numbering, V domains shown)
VH: QVQLVESGGGLVQPGRSLRLSCAASGFTFSNAWMHWVRQAPGKGLEWVAQIKDKGNAYAAYPAPSVKGRFTISRDDSKNSIYLQMNSLKTEDTAVYYCHYVHYASASTVLPAFGVDAWGQGTTVTVSS
VL: DIVMTQSPLSLPVTPGEPASISCQASQELVHMNRNTYLHWYQQKPGQAPRLLIYKVSNRFPGVPDRFSGSGSGTDFTLKISRVEAEDVGVYYCAQGTSVPFTFGQGTKLEIK
B6: H183/L072 VH Y59Q (antibody, name in Kabat numbering, V domains shown)
VH: QVQLVESGGGLVQPGRSLRLSCAASGFTFSNAWMHWVRQAPGKGLEWVAQIKDKGNAYAAYQAPSVKGRFTISRDDSKNSIYLQMNSLKTEDTAVYYCHYVHYASASTVLPAFGVDAWGQGTTVTVSS
VL: DIVMTQSPLSLPVTPGEPASISCQASQELVHMNRNTYLHWYQQKPGQAPRLLIYKVSNRFPGVPDRFSGSGSGTDFTLKISRVEAEDVGVYYCAQGTSVPFTFGQGTKLEIK
B7: H183/L072 VH Y59R (antibody, name in Kabat numbering, V domains shown)
VH: QVQLVESGGGLVQPGRSLRLSCAASGFTFSNAWMHWVRQAPGKGLEWVAQIKDKGNAYAAYRAPSVKGRFTISRDDSKNSIYLQMNSLKTEDTAVYYCHYVHYASASTVLPAFGVDAWGQGTTVTVSS
VL: DIVMTQSPLSLPVTPGEPASISCQASQELVHMNRNTYLHWYQQKPGQAPRLLIYKVSNRFPGVPDRFSGSGSGTDFTLKISRVEAEDVGVYYCAQGTSVPFTFGQGTKLEIK
B8: H183/L072 VH Y59S (antibody, name in Kabat numbering, V domains shown)
VH: QVQLVESGGGLVQPGRSLRLSCAASGFTFSNAWMHWVRQAPGKGLEWVAQIKDKGNAYAAYSAPSVKGRFTISRDDSKNSIYLQMNSLKTEDTAVYYCHYVHYASASTVLPAFGVDAWGQGTTVTVSS
VL: DIVMTQSPLSLPVTPGEPASISCQASQELVHMNRNTYLHWYQQKPGQAPRLLIYKVSNRFPGVPDRFSGSGSGTDFTLKISRVEAEDVGVYYCAQGTSVPFTFGQGTKLEIK
B9: H183/L072 VH Y59T (antibody, name in Kabat numbering, V domains shown)
VH: QVQLVESGGGLVQPGRSLRLSCAASGFTFSNAWMHWVRQAPGKGLEWVAQIKDKGNAYAAYTAPSVKGRFTISRDDSKNSIYLQMNSLKTEDTAVYYCHYVHYASASTVLPAFGVDAWGQGTTVTVSS
VL: DIVMTQSPLSLPVTPGEPASISCQASQELVHMNRNTYLHWYQQKPGQAPRLLIYKVSNRFPGVPDRFSGSGSGTDFTLKISRVEAEDVGVYYCAQGTSVPFTFGQGTKLEIK
B10: H183/L072 VH Y59V (antibody, name in Kabat numbering, V domains shown)
VH: QVQLVESGGGLVQPGRSLRLSCAASGFTFSNAWMHWVRQAPGKGLEWVAQIKDKGNAYAAYVAPSVKGRFTISRDDSKNSIYLQMNSLKTEDTAVYYCHYVHYASASTVLPAFGVDAWGQGTTVTVSS
VL: DIVMTQSPLSLPVTPGEPASISCQASQELVHMNRNTYLHWYQQKPGQAPRLLIYKVSNRFPGVPDRFSGSGSGTDFTLKISRVEAEDVGVYYCAQGTSVPFTFGQGTKLEIK
B11: H183/L072 VH Y59W (antibody, name in Kabat numbering, V domains shown)
VH: QVQLVESGGGLVQPGRSLRLSCAASGFTFSNAWMHWVRQAPGKGLEWVAQIKDKGNAYAAYWAPSVKGRFTISRDDSKNSIYLQMNSLKTEDTAVYYCHYVHYASASTVLPAFGVDAWGQGTTVTVSS
VL: DIVMTQSPLSLPVTPGEPASISCQASQELVHMNRNTYLHWYQQKPGQAPRLLIYKVSNRFPGVPDRFSGSGSGTDFTLKISRVEAEDVGVYYCAQGTSVPFTFGQGTKLEIK
B12: H183/L072 VH Y94A (antibody, name in Kabat numbering, V domains shown)
VH: QVQLVESGGGLVQPGRSLRLSCAASGFTFSNAWMHWVRQAPGKGLEWVAQIKDKGNAYAAYYAPSVKGRFTISRDDSKNSIYLQMNSLKTEDTAVYYCHAVHYASASTVLPAFGVDAWGQGTTVTVSS
VL: DIVMTQSPLSLPVTPGEPASISCQASQELVHMNRNTYLHWYQQKPGQAPRLLIYKVSNRFPGVPDRFSGSGSGTDFTLKISRVEAEDVGVYYCAQGTSVPFTFGQGTKLEIK
B13: H183/L072 VH Y94I (antibody, name in Kabat numbering, V domains shown)
VH: QVQLVESGGGLVQPGRSLRLSCAASGFTFSNAWMHWVRQAPGKGLEWVAQIKDKGNAYAAYYAPSVKGRFTISRDDSKNSIYLQMNSLKTEDTAVYYCHIVHYASASTVLPAFGVDAWGQGTTVTVSS
VL: DIVMTQSPLSLPVTPGEPASISCQASQELVHMNRNTYLHWYQQKPGQAPRLLIYKVSNRFPGVPDRFSGSGSGTDFTLKISRVEAEDVGVYYCAQGTSVPFTFGQGTKLEIK
B14: H183/L072 VH Y94L (antibody, name in Kabat numbering, V domains shown)
VH: QVQLVESGGGLVQPGRSLRLSCAASGFTFSNAWMHWVRQAPGKGLEWVAQIKDKGNAYAAYYAPSVKGRFTISRDDSKNSIYLQMNSLKTEDTAVYYCHLVHYASASTVLPAFGVDAWGQGTTVTVSS
VL: DIVMTQSPLSLPVTPGEPASISCQASQELVHMNRNTYLHWYQQKPGQAPRLLIYKVSNRFPGVPDRFSGSGSGTDFTLKISRVEAEDVGVYYCAQGTSVPFTFGQGTKLEIK
B15: H183/L072 VH Y94M (antibody, name in Kabat numbering, V domains shown)
VH: QVQLVESGGGLVQPGRSLRLSCAASGFTFSNAWMHWVRQAPGKGLEWVAQIKDKGNAYAAYYAPSVKGRFTISRDDSKNSIYLQMNSLKTEDTAVYYCHMVHYASASTVLPAFGVDAWGQGTTVTVSS
VL: DIVMTQSPLSLPVTPGEPASISCQASQELVHMNRNTYLHWYQQKPGQAPRLLIYKVSNRFPGVPDRFSGSGSGTDFTLKISRVEAEDVGVYYCAQGTSVPFTFGQGTKLEIK
B16: H183/L072 VH Y94P (antibody, name in Kabat numbering, V domains shown)
VH: QVQLVESGGGLVQPGRSLRLSCAASGFTFSNAWMHWVRQAPGKGLEWVAQIKDKGNAYAAYYAPSVKGRFTISRDDSKNSIYLQMNSLKTEDTAVYYCHPVHYASASTVLPAFGVDAWGQGTTVTVSS
VL: DIVMTQSPLSLPVTPGEPASISCQASQELVHMNRNTYLHWYQQKPGQAPRLLIYKVSNRFPGVPDRFSGSGSGTDFTLKISRVEAEDVGVYYCAQGTSVPFTFGQGTKLEIK
B17: H183/L072 VH Y97A (antibody, name in Kabat numbering, V domains shown)
VH: QVQLVESGGGLVQPGRSLRLSCAASGFTFSNAWMHWVRQAPGKGLEWVAQIKDKGNAYAAYYAPSVKGRFTISRDDSKNSIYLQMNSLKTEDTAVYYCHYVHAASASTVLPAFGVDAWGQGTTVTVSS
VL: DIVMTQSPLSLPVTPGEPASISCQASQELVHMNRNTYLHWYQQKPGQAPRLLIYKVSNRFPGVPDRFSGSGSGTDFTLKISRVEAEDVGVYYCAQGTSVPFTFGQGTKLEIK
B18: H183/L072 VH Y97I (antibody, name in Kabat numbering, V domains shown)
VH: QVQLVESGGGLVQPGRSLRLSCAASGFTFSNAWMHWVRQAPGKGLEWVAQIKDKGNAYAAYYAPSVKGRFTISRDDSKNSIYLQMNSLKTEDTAVYYCHYVHIASASTVLPAFGVDAWGQGTTVTVSS
VL: DIVMTQSPLSLPVTPGEPASISCQASQELVHMNRNTYLHWYQQKPGQAPRLLIYKVSNRFPGVPDRFSGSGSGTDFTLKISRVEAEDVGVYYCAQGTSVPFTFGQGTKLEIK
B19: H183/L072 VH Y97L (antibody, name in Kabat numbering, V domains shown)
VH: QVQLVESGGGLVQPGRSLRLSCAASGFTFSNAWMHWVRQAPGKGLEWVAQIKDKGNAYAAYYAPSVKGRFTISRDDSKNSIYLQMNSLKTEDTAVYYCHYVHLASASTVLPAFGVDAWGQGTTVTVSS
VL: DIVMTQSPLSLPVTPGEPASISCQASQELVHMNRNTYLHWYQQKPGQAPRLLIYKVSNRFPGVPDRFSGSGSGTDFTLKISRVEAEDVGVYYCAQGTSVPFTFGQGTKLEIK
B20: H183/L072 VH Y97M (antibody, name in Kabat numbering, V domains shown)
VH: QVQLVESGGGLVQPGRSLRLSCAASGFTFSNAWMHWVRQAPGKGLEWVAQIKDKGNAYAAYYAPSVKGRFTISRDDSKNSIYLQMNSLKTEDTAVYYCHYVHMASASTVLPAFGVDAWGQGTTVTVSS
VL: DIVMTQSPLSLPVTPGEPASISCQASQELVHMNRNTYLHWYQQKPGQAPRLLIYKVSNRFPGVPDRFSGSGSGTDFTLKISRVEAEDVGVYYCAQGTSVPFTFGQGTKLEIK
B21: H183/L072 VH Y97P (antibody, name in Kabat numbering, V domains shown)
VH: QVQLVESGGGLVQPGRSLRLSCAASGFTFSNAWMHWVRQAPGKGLEWVAQIKDKGNAYAAYYAPSVKGRFTISRDDSKNSIYLQMNSLKTEDTAVYYCHYVHPASASTVLPAFGVDAWGQGTTVTVSS
VL: DIVMTQSPLSLPVTPGEPASISCQASQELVHMNRNTYLHWYQQKPGQAPRLLIYKVSNRFPGVPDRFSGSGSGTDFTLKISRVEAEDVGVYYCAQGTSVPFTFGQGTKLEIK

Target: T1, CD3 epsilon homodimer protein (UniProt P07766 23-126)
T1 construct: also called CD3 (CD3 epsilon)
T1 sequence (P07766 23-126): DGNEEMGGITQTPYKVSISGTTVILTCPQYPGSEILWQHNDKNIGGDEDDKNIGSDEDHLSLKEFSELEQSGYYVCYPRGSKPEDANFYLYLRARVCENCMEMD
Assay: SPR Biacore T200, CD3e homodimer on chip, vs unaltered GLS3000 antibody

Binder	ratio of amounts bound (Z=Y/X)
B1	0.48
B2	1.13

Target: T2, Human CD137 ECD (human)
T2 construct: also called 4-1BB
T2 sequence (chain, as listed by the source limits assumed): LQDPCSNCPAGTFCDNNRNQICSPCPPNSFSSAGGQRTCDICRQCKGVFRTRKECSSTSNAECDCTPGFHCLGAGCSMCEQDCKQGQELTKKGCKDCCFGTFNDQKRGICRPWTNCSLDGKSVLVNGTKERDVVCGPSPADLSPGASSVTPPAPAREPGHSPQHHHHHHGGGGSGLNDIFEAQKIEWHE
Assay: single mutant vs template dBBDu183H

Binder	fold change of affinity [fold]
B3	1.1
B4	0.8
B5	0.3
B6	0.8
B7	0.9
B8	0.8
B9	0.8
B10	0.8
B11	1.5
B12	0
B13	0
B14	0
B15	3.2
B16	0
B17	0
B18	0
B19	0
B20	0
B21	0
